First the molecules themselves.
T1: Heterotrimeric human LIGHT 32L-214E/32S-214K (combination of LIGHT-S32L and LIGHT-E214K subunits) expressed … (human, UniProt O43557 1-240; O43557 1-240)
T1 construct: Both polymorphic forms co-expressed in EL4 cells; also called combination of LIGHT-E214K and LIGHT-S32L
T1 chain 1: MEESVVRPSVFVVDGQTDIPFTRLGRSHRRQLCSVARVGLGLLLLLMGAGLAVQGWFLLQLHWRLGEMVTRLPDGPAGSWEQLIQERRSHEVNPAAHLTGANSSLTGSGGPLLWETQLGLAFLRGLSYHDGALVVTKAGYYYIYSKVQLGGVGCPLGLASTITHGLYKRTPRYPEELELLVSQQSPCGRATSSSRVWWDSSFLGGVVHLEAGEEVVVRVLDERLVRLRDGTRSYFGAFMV
T1 chain 2: T1 chain 1 with L32S, E214K

B1: Full Length Human LIGHT, predominant form (32S-214E), expressed on EL4 cells (ligand)
chain: T1 chain 1 with L32S
notes: Stably expressed on mouse EL4 thymoma cells by retroviral transduction; also called p30 polypeptide; TNFSF-14
B2: DcR3-Fc (human Decoy Receptor 3 Fc fusion) (Fc fusion, UniProt O95407 30-300, looked up)
chain: VAETPTYPWRDAETGERLVCAQCPPGTFVQRPCRRDSPTTCGPCPPRHYTQFWNYLERCRYCNVLCGEREEEARACHATHNRACRCRTGFFAHAGFCLEHASCPPGAGVIAPGTPSQNTQCQPCPPGTFSASSSSSEQCQPHRNCTALGLALNVPGSSSHDTLCTSCTGFPLSTRVPGAEECERAVIDFVAFQDISIKRLQRLLQALEAPEGWGPTPRAGRAALQLKLRRRLTELLGAQDGALLVRLLQALRVARMPGLERSVRERFLPVH
notes: also called human DcR3; not shown: Fc part

Test [1] deals with B2. Nature of the test: competition flow cytometry, graded DcR3-Fc against constant LTβR-Fc on LIGHT expressing EL4 cells. How it is done:
(§1) FIGS. 11A-11B. Competition binding assay for LTβR-Fc to LIGHT expressing EL4 cells in the presence of DcR3. […] Specific LTβR-Fc binding to the LIGHT expressing EL4 cells was detected with an anti-LTβR monoclonal antibody (BD-A8). (B) IC50 values were calculated by nonlinear regression analysis using Prism GraphPad (v4; San Diego, USA).

For test [2], the target named is T1, Heterotrimeric human LIGHT …. The test is described as above. The procedure:
as §1

From patent publication US20100136061A1 (LA JOLLA INSTITUTE FOR ALLERGY AND IMMUNOLOGY, published 2010) come the findings set out here.

Where a chain is given by its changes, count along the chain named.

Take B1: the binding result in test [1] is “binds”.

With B2, the “IC50 ratio against the predominant form of LIGHT (SEQ ID NO:1)” value in test [2] is approximately 2.5 times.
